{"source": "paper PMC11244893", "about": "(bioRxiv, 2024)", "proteins": {"B1": {"name": "full-length, wild-type phosphate starvation response like protein-4 (PHL4) (natural protein, Arabidopsis, UniProt Q8GXC2 1-397, looked up)", "chain": "MIPNDDDDANSMKNYPLNDDDANSMKNYPLNDDDANSMENYPLRSIPTELSHTCSLIPPSLPNPSEAAADMSFNSELNQIMARPCDMLPANGGAVGHNPFLEPGFNCPETTDWIPSPLPHIYFPSGSPNLIMEDGVIDEIHKQSDLPLWYDDLITTDEDPLMSSILGDLLLDTNFNSASKVQQPSMQSQIQQPQAVLQQPSSCVELRPLDRTVSSNSNNNSNSNNAAAAAKGRMRWTPELHEVFVDAVNQLGGSNEATPKGVLKHMKVEGLTIFHVKSHLQKYRTAKYIPVPSEGSPEARLTPLEQITSDDTKRGIDITETLRIQMEHQKKLHEQLESLRTMQLRIEEQGKALLMMIEKQNMGFGGPEQGEKTSAKTPENGSEESESPRPKRPRNEE"}}, "biological_target": "the molecule itself", "assay": "SEC + other: diffusion NMR"}
{"protein": "B1", "values": [{"measurement": "stoichiometry N", "value": 4}]}
